Here are results for one molecule from PMC12123872.

For data set [1], the target named is POLR2A fragment Ile1231-Lys1350 (UniProt P24928 1231-1350). The experiment in a line: EMSA.
The target of another data set is T1, RAD21 (UniProt O60216 1-631).
T1 sequence: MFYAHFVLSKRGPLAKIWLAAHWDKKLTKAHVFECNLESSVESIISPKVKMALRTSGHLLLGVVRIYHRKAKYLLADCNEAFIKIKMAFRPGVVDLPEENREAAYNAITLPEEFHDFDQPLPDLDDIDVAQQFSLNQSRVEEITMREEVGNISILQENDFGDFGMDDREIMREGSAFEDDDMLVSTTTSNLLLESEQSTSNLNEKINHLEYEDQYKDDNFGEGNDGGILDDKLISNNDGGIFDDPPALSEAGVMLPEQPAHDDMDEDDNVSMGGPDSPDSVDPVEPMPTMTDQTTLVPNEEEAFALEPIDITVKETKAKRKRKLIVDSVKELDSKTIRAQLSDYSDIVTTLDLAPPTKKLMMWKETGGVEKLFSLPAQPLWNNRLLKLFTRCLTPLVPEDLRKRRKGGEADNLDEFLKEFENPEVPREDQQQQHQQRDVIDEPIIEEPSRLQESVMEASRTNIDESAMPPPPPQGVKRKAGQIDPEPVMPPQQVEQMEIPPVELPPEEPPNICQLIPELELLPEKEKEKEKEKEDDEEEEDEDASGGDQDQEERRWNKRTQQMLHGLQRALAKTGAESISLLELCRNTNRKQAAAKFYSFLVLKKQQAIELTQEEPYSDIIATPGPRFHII
Kind of data set: EMSA. In general terms: A gel shift assay detects complexes by their altered migration in electrophoresis.

POLR2A fragment Ile1231-Lys1350, sequence (P24928 1231-1350): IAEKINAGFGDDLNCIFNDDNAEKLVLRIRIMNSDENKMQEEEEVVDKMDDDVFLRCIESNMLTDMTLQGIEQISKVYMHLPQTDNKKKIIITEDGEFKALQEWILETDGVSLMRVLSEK

B1: rs1950834-G probe (dsDNA)
DNA 1: TCGGAGTTTGGCCTTCCGGCTCTCCAACTCAGATC
DNA 2: GATCTGAGTTGGAGAGCCGGAAGGCCAAACTCCGA
In the case of B1, the binding result (in data set [1]; with RAD21) was “binds” throughout.
